Assay [1] deals with Aβ1-42 peptide. Description: cell-based or functional assay.
The target in assay [2] is T1, Aβ17-40 peptide, biotinylated (Anaspec) (biotinylated (position not given)).
T1 peptide: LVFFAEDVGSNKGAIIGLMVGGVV
Description: ELISA on longer biotinylated Aβ peptides. An excerpt: (§1) The peptides in the peptide library were composed of 8, 9 or 10-mer aa peptides. A biotinylated complete Aβ₁₋₄₂ peptide (human sequence) was used as positive control (Bachem, Bubendorf, Switzerland). In addition, longer peptides covering Aβ1-28, Aβ17-40, Aβ1-40 and Aβ₁₋₄₂ were used to define the broader region to which these antibodies may bind. These 4 peptides were also biotinlyated (manufactured by Anaspec and purchased from ANAWA Trading SA, Switzerland). Epitope mapping was done according to the manufacturer's (Mimotopes) instructions. Briefly, Streptavidin coated plates (NUNC, Roskilde, Denmark) were blocked with 0.1% BSA in PBS overnight at 4° C. After washing with PBS-0.05% Tween 20, plates were coated for 1 hour at RT with the different peptides from the library, diluted in 0.1% BSA, 0.1% Sodium Azide in PBS to a final concentration of 10 μM. […] Plates were washed again and incubated with alkaline phosphatase conjugated goat anti mouse IgG (Jackson Immunresearch West Grove, Pa., USA) for 1 h at RT. After final washing, plates were incubated with phosphatase substrate (pNPP, Sigma-Aldrich, St Louis, Mo., USA) and read after 3 hours of incubation at 405 nm using an ELISA plate reader.
In general terms: An ELISA detects its analyte on a solid surface through an enzyme-linked reagent.

For assay [3], the target named is T1, Aβ17-40 peptide, biotinylated (Anaspec). Description: ELISA, biotin-peptide on streptavidin, Ab 10 µg/ml; mean of 2, background subtracted.
Source text: as §1

The target in assay [4] is T2, Aβ1-40 peptide, biotinylated (Anaspec) (biotinylated (position not given)).
T2 construct: also called Ab1-40
The assay is described as above.
Source text: as §1

In assay [5] the target is T3, Aβ1-42 peptide, biotinylated (Anaspec) (biotinylated (position not given)).
T3 construct: also called 1-42A
T3 sequence (peptide, as listed by the source): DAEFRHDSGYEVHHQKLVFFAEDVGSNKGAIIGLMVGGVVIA
The description is as above.
Source text: as §1

For assay [6], the target named is T4, Biotinylated complete Aβ1-42 peptide (human sequence, Bachem) (human, biotinylated (position not given)).
T4 construct: also called 1-42B; Aβ1-42 (positive control of the peptide library ELISA)
T4 sequence (peptide, as listed by the source): as above
The description is as above.
Source text: as §1

Assay [7] addresses T4, Biotinylated complete Aβ1-42 peptide …. Description: peptide library ELISA, positive control, Ab 10 µg/ml.
Source text: as §1

Chain of Aβ1-42 peptide (peptide, as listed by the source): as above

B1: ACI-11-Ab-9 monoclonal antibody (antibody, V domains shown)
VH: QVQLQQSDAELVKPGASVKISCKVSGYTFTDHTIHWMKQRPEQGLEWIGYIYPRDGSTKYNEKFKGKATLTADKSSSTAYMQLNSLTSEDSAVYFCARDYGYAFDYWGQGTTLTVSS
VL: QAVVTQESALTTSPGGTVILTCRSSTGAVTTSNYANWVQEKPDHLFTGLIGGTSNRAPGVPVRFSGSLIGDKAALTITGAQTEDDAMYFCALWYSTHYVFGGGTKVTVL
notes: Mouse monoclonal IgG from hybridoma FG1F9E4 (DSM ACC2845); also called clone FG1F9E4
For B1, the “disaggregation of pre-aggregated Aβ1-42, thioflavin T assay, molar ratio 1:10” value in assay [1] turned out to be 52%. In assay [1], the “disaggregation of pre-aggregated Aβ1-42, thioflavin T assay, molar ratio 1:100” value turned out to be 22%. Also, the “inhibition of Aβ1-42 aggregation, thioflavin T assay, molar ratio 1:10” value in assay [1] was 69%. Also, the “inhibition of Aβ1-42 aggregation, thioflavin T assay, molar ratio 1:100” value in assay [1] came out at 34%. The binding result in assay [2] was “no binding (tested: 10 µg/ml)”. Besides, the O.D. in assay [3] was determined as 0.02 O.D; in assay [4], 1.02 O.D; in assay [5], 0.78 O.D; in assay [6] it was 1.54 O.D.

B2: ACI-12-Ab-11 monoclonal antibody (antibody, V domains shown)
VH: B1 VH
VL: B1 VL
notes: Mouse monoclonal IgG from hybridoma FK2A6A6 (DSM ACC2846); also called ACI-12-Ab-11 (clone: FK2A6A6); clone FK2A6A6
Turning to B2, in assay [1], the “disaggregation of pre-aggregated Aβ1-42, thioflavin T assay, molar ratio 1:10” value was determined as 54%. In assay [1], the “disaggregation of pre-aggregated Aβ1-42, thioflavin T assay, molar ratio 1:100” value was determined as 18%. Moreover, the “inhibition of Aβ1-42 aggregation, thioflavin T assay, molar ratio 1:10” value in assay [1] turned out to be 66%. For the same molecule, in assay [1], the “inhibition of Aβ1-42 aggregation, thioflavin T assay, molar ratio 1:100” value was 30%. The O.D. in assay [7] was 0.69 O.D; in assay [3], -0.02 O.D; in assay [4], 0.62 O.D; in assay [5], 0.44 O.D; in assay [6], 1.07 O.D.

The values above are taken from US20100291097A1 (AC IMMUNE S A, published 2010).
